The target in experiment [1] is T1, human DLL4 extracellular domain protein, His-tagged (R&D System Cat: 1506-D4/CF) (human, UniProt Q9NR61 27-522).
T1 construct: range 27-522; Bought protein; also called hDLL4-His; human DLL4-His; not shown: C-terminal histidine tag
The experiment in a line: ELISA, plate coated with hDLL4-His 2 ug/ml, bound antibody detected with HRP-conjugated anti-Fab. As for the experimental part:
The anti-DLL4 antibody-antigen binding affinity was evaluated using an ELISA-based binding test. A 96-well microtiter plate (Nunc-Immuno Plate, NUNC, Rochester, N.Y.) was coated with 2 μg/ml of hDLL4-His protein in PBS solution at 4° C. overnight, and non-specific binding sites were blocked with BSA (bovine serum albumin) for 2 hours. The anti-DLL4 antibody (purified protein) on the 96-well microtiter plate was transferred to a microtiter plate at an antibody concentration ranging from 0 nM to 128 nM. Then, the plate was incubated for 2 hours, after which the plate was washed five times with 0.05% tween 20-containing PBS, and in order to detect the plate-bound DLL4 antibody, an HRP-conjugated Fab polyclonal antibody reagent (Pierce) was diluted at a ratio of 1:10,000, transferred to the washed microtiter plate, and then allowed to react at 37° C. for 1 hour. After the reaction, color development was performed using a colorimetric substrate (3,3′,5,5′-tetramethylbenzidine; Sigma-Aldrich Co.). The enzymatic reaction was stopped using 0.5 mol/l of sulfuric acid, and the absorbance at 450 nm-650 nm was recorded using a microplate reader (molecular device). As a result, it was shown that the binding affinities of the antibodies for DLL4 increased in a concentration-dependent manner (FIG. 2).
On the technique in general: An ELISA detects its analyte on a solid surface through an enzyme-linked reagent.

The target in experiment [2] is T1, human DLL4 extracellular domain …. The experiment in a line: SPR (Biacore T200), hDLL4 immobilised on a CM5 chip, antibody as analyte; the table says 'Bivalent binding'. As for the experimental part: To be specific, Biacore T200 was used in SPR analysis and HBS-EP (10 mM HEPES, pH7.4, 150 mM NaCl, 3 mM EDTA, 0.15% surfactant P20) was used as a running buffer. Surface preparation was done by using a surface preparation target immobilization tool of a wizard program (condition: 25° C., 5 μl/min). A ligand, hDLL4, was diluted in 10 mM sodium acetate (pH 4.5) to a final concentration of 10 μg/ml, and then immobilized to the surface of CM5 chip by a target immobilization level for each test group. In the immobilization process, two flow cells were included as one set wherein the first flow cell was set as a blank and the second flow cell has hDLL4 immobilized to the surface thereof in the present experiment. The first flow cell acted as a reference to account for experimental variability due to nonspecific bindings and buffer effects, and in the analysis, subtracted RU values (Fc2-Fc1) were used as experimental results. Anti-DLL4 antibodies that bind to hDLL4, i.e., MLCK1, MLCK2, MLCK-3, and MLCK4, were diluted in a running buffer to a final molar concentration of 100 nM, serially diluted 5 times, and each of the 5 dilutions was analyzed. The sample to be analyzed was prepared to have high purity and high concentration, enough to be diluted more than 100 times at minimum, thereby minimizing buffer effect. All analysis was done by using a wizard program, screening duplicates for each sample and a regeneration step was included in between each analysis step, so that the standard of experiment remains constant. The experimental results were analyzed by Biaevaluation software version 4.0. At this time, to determine the RU values (Fc2-Fc1 and Fc4-Fc3), the baseline was set to zero, the value measured at a buffer injection part (analyte, 0 nM) was subtracted from a whole sensorgram. […] The factors to be analyzed include kₐ(M⁻¹s⁻¹), kd(s⁻¹), Kₐ(1/M), and KD(M). […] Equilibrium dissociation constant KD(M) was calculated by dividing kd with kₐ (kd/kₐ).
(In general: In SPR one partner is held on a chip, and binding of the other changes the refractive index at the surface.)

Experiment [3] shares this target. The experiment in a line: SPR (Biacore T200), hDLL4 immobilized on CM5 chip, antibody as analyte, 1:1 model. As for the experimental part: To be specific, Biacore T200 was used in SPR analysis and HBS-EP (10 mM HEPES, pH7.4, 150 mM NaCl, 3 mM EDTA, 0.15% surfactant P20) was used as a running buffer. Surface preparation was done by using a surface preparation target immobilization tool of a wizard program (condition: 25° C., 5 μl/min). A ligand, hDLL4, was diluted in 10 mM sodium acetate (pH 4.5) to a final concentration of 10 μg/ml, and then immobilized to the surface of CM5 chip by a target immobilization level for each test group. In the immobilization process, two flow cells were included as one set wherein the first flow cell was set as a blank and the second flow cell has hDLL4 immobilized to the surface thereof in the present experiment. The first flow cell acted as a reference to account for experimental variability due to nonspecific bindings and buffer effects, and in the analysis, subtracted RU values (Fc2-Fc1) were used as experimental results. Anti-DLL4 antibodies that bind to hDLL4, i.e., MLCK1, MLCK2, MLCK-3, and MLCK4, were diluted in a running buffer to a final molar concentration of 100 nM, serially diluted 5 times, and each of the 5 dilutions was analyzed. The sample to be analyzed was prepared to have high purity and high concentration, enough to be diluted more than 100 times at minimum, thereby minimizing buffer effect. All analysis was done by using a wizard program, screening duplicates for each sample and a regeneration step was included in between each analysis step, so that the standard of experiment remains constant. The experimental results were analyzed by Biaevaluation software version 4.0. At this time, to determine the RU values (Fc2-Fc1 and Fc4-Fc3), the baseline was set to zero, the value measured at a buffer injection part (analyte, 0 nM) was subtracted from a whole sensorgram. Then, the resulting RU value was analyzed by a 1:1 binding model to determine a binding affinity. The factors to be analyzed include kₐ(M⁻¹s⁻¹), kd(s⁻¹), Kₐ(1/M), and KD(M). […] Equilibrium dissociation constant KD(M) was calculated by dividing kd with kₐ (kd/kₐ).

Experiment [4] concerns the target T2, human DLL4 stably expressed on HEK 293 cells (human, UniProt Q9NR61 27-685).
T2 construct: whole, on cells; also called human DLL4 antigen
The experiment in a line: flow cytometry on HEK293 cells stably expressing human DLL4, 10 ug antibody. The protocol: Specifically, human embryonic kidney cells (HEK 293) that stably express human DLL4 were prepared, and the degree of binding of the anti-DLL4 antibodies to DLL4 was measured using the prepared cells and a FACSCalibur system (BD Biosciences). The HEK293 cells that stably expressed DLL4 were dissociated, washed with PBS, adjusted to a cell number of 1×10⁵ cells/200 μl PBS, treated with 10 μg of each of the DLL4 monoclonal antibodies, and then allowed to react at room temperature for 30 minutes. After the reaction, the cells were washed with PBS and reacted with an FITC-labeled Fc-specific antibody (goat anti-human IgG FITC conjugate, Fc specific, Sigma, F9512; concentration: 2.0 mg/ml) at a concentration of 5 μl/1×10⁵ cells/200 μl PBS at 4° C. for 1 hours. After the reaction, the cells were washed with PBS and analyzed using a FACSCalibur system. A control group was treated only with an FITC-labeled Fc-specific antibody. The results of analysis of human DLL4-minoclonal antibody-FITC binding in the test group treated with each of the DLL4 monoclonal antibodies were compared with those in the control group.
Background: A flow cytometer gives signals particle by particle.

Experiment [5] has as its target T1, human DLL4 extracellular domain …. Briefly: ELISA solution competition: antibody premixed with DLL4-His; blocks binding to plate-coated hNotch-1-hFc. The protocol:
Each well of a 96-well microtiter plate (Nunc-Immuno Plate, NUNC, Rochester, N.Y.) was coated with 100 μl of 500 ng/ml of hNotch-1-hFc protein (R&D Systems) (diluted in PBS) at 4° C. overnight, and non-specific binding sites were blocked with BSA for 2 hours.
The anti-DLL4 antibody (purified protein) on the 96-well microtiter plate was premixed with serial dilutions of antigen protein (DLL4 antigen, 600 ng/m) at an antibody concentration ranging from 0 nM to 140 nM. The antigen/antibody mixture was incubated for 30 minutes, and then transferred to a microtiter plate precoated with the DLL4 receptor hNotch-1 protein (50 ng/well) in order to measure free antibody. Then, the plate was incubated for 2 hours and washed five times with 0.05% tween 20-containing PBS. In order to detect the DLL4 antigen bound to the plate, an HRP-conjugated His anti-mouse IgG polyclonal antibody reagent (Roche applied science) was diluted at a ratio of 1:500, and the washed microtiter plate was treated with the diluted antibody reagent, and then allowed to react at 37° C. for 1 hour. Then, color development was performed using a colorimetric substrate (3,3′,5,5′-tetramethylbenzidine; Sigma-Aldrich Co.), and the enzymatic reaction was stopped using 0.5 mol/l of sulfuric acid. The amounts of antibodies required to achieve a 50% decrease in human DLL4-His bound to plate-coated Notch 1-Fc (IC₅₀) are shown in Table 1 below.

In general, EC50 (read off the curve) refers to the concentration giving half of the maximal effect. A high value points to a less potent agent. By koff is commonly meant the first-order rate constant of dissociation. Higher therefore signals fast dissociation. In general, kon refers to the second-order rate constant of association. A higher kon goes with faster complex formation. For orientation: Kd means a measure of binding affinity in units of concentration. A lower Kd goes with higher affinity. As usually defined, the IC50 is the concentration that gives 50% inhibition. Lower therefore signals greater potency.

Substitutions are numbered along the chain they refer to.

T1 sequence (Q9NR61 27-522 limits assumed): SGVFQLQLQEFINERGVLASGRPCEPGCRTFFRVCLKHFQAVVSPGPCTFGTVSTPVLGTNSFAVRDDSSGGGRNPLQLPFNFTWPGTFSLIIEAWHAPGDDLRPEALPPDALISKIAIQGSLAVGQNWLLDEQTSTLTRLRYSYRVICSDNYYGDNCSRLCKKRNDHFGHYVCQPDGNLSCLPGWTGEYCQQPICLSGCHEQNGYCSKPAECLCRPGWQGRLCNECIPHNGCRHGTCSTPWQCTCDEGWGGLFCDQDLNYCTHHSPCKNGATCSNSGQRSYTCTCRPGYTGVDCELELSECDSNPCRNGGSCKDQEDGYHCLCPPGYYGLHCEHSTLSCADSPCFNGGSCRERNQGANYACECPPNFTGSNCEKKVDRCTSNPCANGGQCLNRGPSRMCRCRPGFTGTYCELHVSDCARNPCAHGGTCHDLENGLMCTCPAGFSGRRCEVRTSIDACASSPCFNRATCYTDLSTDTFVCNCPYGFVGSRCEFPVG
T2 sequence (Q9NR61 27-685): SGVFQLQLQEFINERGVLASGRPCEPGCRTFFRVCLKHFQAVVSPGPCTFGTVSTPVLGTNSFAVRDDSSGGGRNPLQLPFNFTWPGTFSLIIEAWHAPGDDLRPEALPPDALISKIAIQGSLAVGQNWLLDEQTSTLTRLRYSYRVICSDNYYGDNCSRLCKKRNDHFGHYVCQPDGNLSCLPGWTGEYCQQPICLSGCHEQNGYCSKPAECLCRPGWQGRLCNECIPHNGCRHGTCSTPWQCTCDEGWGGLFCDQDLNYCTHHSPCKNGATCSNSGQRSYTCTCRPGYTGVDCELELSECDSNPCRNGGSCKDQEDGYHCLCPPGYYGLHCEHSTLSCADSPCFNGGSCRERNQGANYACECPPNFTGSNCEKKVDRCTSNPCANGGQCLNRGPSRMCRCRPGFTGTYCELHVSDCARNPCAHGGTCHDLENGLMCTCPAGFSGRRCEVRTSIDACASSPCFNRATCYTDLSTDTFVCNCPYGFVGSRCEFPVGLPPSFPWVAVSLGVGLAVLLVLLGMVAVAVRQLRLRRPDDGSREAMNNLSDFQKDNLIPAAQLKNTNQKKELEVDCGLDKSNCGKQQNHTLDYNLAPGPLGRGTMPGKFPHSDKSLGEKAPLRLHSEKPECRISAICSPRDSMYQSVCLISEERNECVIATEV

B1: MLCK-4 (antibody, V domains shown)
VH: EVQLLESGGGLVQPGGSLRLSCAASGFTFSNYAMSWVRQAPGKGLEWVSWIYHGGGDTYYADSVKGRFTISRDNSKNTLYLQMNSLRAEDTAVYYCARGPNYTFGKPFDYWGQGTLVTVSS
VL: QSVLTQPPSASGTPGQRVTISCRGSPSNIGNNTVYWYQQLPGTAPKLLIYSDSQRPSGVPDRFSGSKSGTSASLAISGLRSEDEADYYCGSWDYSLSAYVFGGGTKLTVL
notes: Human monoclonal antibody from a phage scFv library; Only the variable regions are tied to the clone; In flow cytometry it was detected with an anti-human IgG Fc-specific antibody, so it carries a human Fc; also called anti-DLL4 antibody
On to B1, for which the “EC50 (read off the curve)” value in experiment [1] is around 0.2 pM. In experiment [2], this molecule returned a Ka of 469000 M⁻¹, a koff of 0.00474 s⁻¹ and a kon of 2220 M⁻¹ s⁻¹. For the same molecule, binding in experiment [3] was put at a Kd of 2130 nM. The “degree of binding to DLL4 antigen compared to the control group” value (shortened to “degree … compared to the control group”) in experiment [4] was found to be 52.5%. This molecule also registered an IC50 in experiment [5] of 3.72 nM.

B2: MLCK-1 (antibody, V domains shown)
VH: EVQLLESGGGLVQPGGSLRLSCAASGFTFSDYAMSWVRQAPGKGLEWVSWIYSDDGNKYYADSVKGRFTISRDNSKNTLYLQMNSLRAEDTAVYYCARADPPFDYWGQGTLVTVSS
VL: QSVLTQPPSASGTPGQRVTISCTGSSSNIGSNNVSWYQQLPGTAPKLLIYSDNNRPSGVPDRFSGSKSGTSASLAISGLRSEDEADYYCATWDSSLNGYVFGGGTKLTVL
notes: as for B1
As to B2, the “EC50 (read off the curve)” value in experiment [1] is around 0.1 pM. In experiment [2], this molecule returned a Ka of 3.8e+06 M⁻¹, a koff of 0.0169 s⁻¹ and a kon of 64100 M⁻¹ s⁻¹. Moreover, binding in experiment [3] was characterised by a dissociation constant (Kd) of 263 nM. Besides, the “degree … compared to the control group” value in experiment [4] is 47.8%. In experiment [5], the IC50 came to 1.32 nM.

B3: MLCK-3 (antibody, V domains shown)
VH: B2 VH with S53Y, D55S, N57S, P101L
VL: B2 VL with T23S, S31N, N33A, S35T, N54H, A90G, S94A, N97S
notes: as for B1
As for B3, in experiment [1], the “EC50 (read off the curve)” value was around 0.05 pM. In experiment [2], this molecule registered a Ka of 1.44e+08 M⁻¹, a koff of 0.00359 s⁻¹ and a kon of 516000 M⁻¹ s⁻¹. Moreover, in experiment [3], binding was characterised by a dissociation constant (Kd) of 6.96 nM. For the same molecule, the “degree … compared to the control group” value in experiment [4] was 52.9%. The same molecule gave an IC50 in experiment [5] of 0.38 nM.

B4: MLCK-2 (antibody, V domains shown)
VH: B2 VH with D54G, D55S, P101W
VL: B1 VL with R23T, P26S, N31S, T33D, Y35T, S51A, Q54K, S91T
notes: Human monoclonal antibody from a phage scFv library; Only the variable regions are tied to the clone; In flow cytometry it was detected with an anti-human IgG Fc-specific antibody, so it carries a human Fc; also called MLCK-2 mAb; anti-DLL4 antibody
On to B4, for which the “EC50 (read off the curve)” value in experiment [1] was around 0.04 pM. In experiment [2], this molecule came in with a Ka of 5.86e+08 M⁻¹, an off-rate (koff) of 0.000232 s⁻¹ and a kon of 136000 M⁻¹ s⁻¹. Also, the Kd in experiment [3] was 1.71 nM. In addition, the “degree … compared to the control group” value in experiment [4] turned out to be 59%. In experiment [5], this molecule showed an IC50 of 0.41 nM.

Source of the values: patent US20150183856A1 (ABLBIO, published 2015).
